Reference: patent US20250326813A1 (ELPIS BIOPHARMACEUTICALS, published 2025)
Changes are numbered by the printed parent chain.

T1: human IL2Rα Fc fusion protein (human, UniProt P01589 22-213, limits assumed)
T1 construct: also called CD25; not shown: Fc part
T1 sequence (looked up): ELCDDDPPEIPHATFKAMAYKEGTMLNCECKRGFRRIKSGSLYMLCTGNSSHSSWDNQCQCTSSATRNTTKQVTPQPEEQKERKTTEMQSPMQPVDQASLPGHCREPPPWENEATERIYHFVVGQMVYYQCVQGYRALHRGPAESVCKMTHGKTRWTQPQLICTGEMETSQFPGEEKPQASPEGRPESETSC

T2: human IL2Rβ Fc fusion protein (human, UniProt P14784 27-239)
T2 construct: also called ILR2β; CD122; not shown: Fc part
T2 sequence (looked up): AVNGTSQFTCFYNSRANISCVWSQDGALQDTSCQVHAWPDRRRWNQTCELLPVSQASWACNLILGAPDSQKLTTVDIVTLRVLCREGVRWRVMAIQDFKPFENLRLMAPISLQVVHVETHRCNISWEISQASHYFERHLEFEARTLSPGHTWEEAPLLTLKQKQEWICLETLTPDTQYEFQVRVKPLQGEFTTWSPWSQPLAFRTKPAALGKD

B1: EP564 (clone 2021EP22-E11), E. coli-produced (ligand)
chain: APASSSTKKTQLQLEHLLLDLQMILNGINNYKNPKLTRMLTFKFYMPKKATELKHLQCLEEELKPLEEVLNLAQSKNFHLRFKALIIEINFIVQLLKGSETTFMCEYADETATIVEFLNRWITFSQSIISTLT
B2: EP565 (clone 2021EP22-F10), E. coli-produced (ligand)
chain: B1 chain with F82S, K83R, A84Q, I87S, E88N, I89M, F91G, V93I, Q94L, L95K
B3: EP581 (clone 2021EP16-C10), E. coli-produced (ligand)
chain: APASSSTKKTQLQLEHLLLDLQMILNGINNYKNPKLTRMLTFKFYMPKKATELKHLQCLEEELKPLEEVLNLAQSKNFHLRSREVVSRIDAIILELKGSETTFMCEYADETATIVEFLNRWITFSQSIISTLT
B4: EP576 (clone 2021EP21-C10), E. coli-produced (ligand)
chain: APASSSTKKTQLQLEHLLLDLQMILNGINNYKNPKLTRMLTFKFYMPKKATELKHLQCLEEELKPLEEVLNLAQSKNFHLLPRNKISKTKVMVHELKGSETTFMCEYADETATIVEFLNRWITFSQSIISTLT
B5: EP578 (clone 2021EP16-H02), E. coli-produced (ligand)
chain: B3 chain with R81T, S82T, E84D, S87M, R88T, I89M, D90A, A91R, I93D
B6: EP586 (clone 2021EP16-E07), E. coli-produced (ligand)
chain: APASSSTKKTQLQLEHLLLDLQMILNGINNYKNPKLTRMLTFKFYMPKKATELKHLQCLEEELKPLEEVLNLAQSKNFHLRPRDSRRLISVIVFRLKGSETTFMCEYADETATIVEFLNRWITFSQSIISTLT
B7: EP575 (clone 2021EP16-D09), E. coli-produced (ligand)
chain: B1 chain with F82N, A84G, L85I, I86L, I87G, E88D, N90S, F91N, Q94L, L95A
B8: EP572 (clone 2021EP21-C03), E. coli-produced (ligand)
chain: B6 chain with P82A, S85I, R86V, L88N, I89A, S90K, I92G, F94Q, R95E
B9: EP570 (clone 2021EP21-E03), E. coli-produced (ligand)
chain: APASSSTKKTQLQLEHLLLDLQMILNGINNYKNPKLTRMLTFKFYMPKKATELKHLQCLEEELKPLEEVLNLAQSKNFHLSSSGLLGDVWVIVLDLKGSETTFMCEYADETATIVEFLNRWITFSQSIISTLT
B10: EP585 (clone 2021EP16-C03), E. coli-produced (ligand)
chain: APASSSTKKTQLQLEHLLLDLQMILNGINNYKNPKLTRMLTFKFYMPKKATELKHLQCLEEELKPLEEVLNLAQSKNFHLSPPDLIANMAVYFVELKGSETTFMCEYADETATIVEFLNRWITFSQSIISTLT
B11: EP573 (clone 2021EP16-E02), E. coli-produced (ligand)
chain: APASSSTKKTQLQLEHLLLDLQMILNGINNYKNPKLTRMLTFKFYMPKKATELKHLQCLEEELKPLEEVLNLAQSKNFHLNRTDLVGDVNATIKALKGSETTFMCEYADETATIVEFLNRWITFSQSIISTLT
B12: EP577 (clone 2021EP16-E05), E. coli-produced (ligand)
chain: B4 chain with L81K, P82A, R83I, N84A, K85F, K88D, T89L, M92R, H94L, E95D
B13: EP583 (clone 2021EP16-H10), E. coli-produced (ligand)
chain: B9 chain with S82A, S83I, G84D, L86M, G87S, D88S, W90K, I92V, L94W, D95K
B14: EP582 (clone 2021EP16-G10), E. coli-produced (ligand)
chain: B4 chain with L81T, P82H, N84D, K85V, K88D, T89V, K90N, M92L, V93A, H94L
B15: EP569 (clone 2021EP22-E03), E. coli-produced (ligand)
chain: APASSSTKKTQLQLEHLLLDLQMILNGINNYKNPKLTRMLTFKFYMPKKATELKHLQCLEEELKPLEEVLNLAQSKNFHLRRKESINHMIVVFPVLKGSETTFMCEYADETATIVEFLNRWITFSQSIISTLT
B16: EP579 (clone 2021EP16-E11), E. coli-produced (ligand)
chain: APASSSTKKTQLQLEHLLLDLQMILNGINNYKNPKLTRMLTFKFYMPKKATELKHLQCLEEELKPLEEVLNLAQSKNFHLRPSYIVSYTNVFPLVLKGSETTFMCEYADETATIVEFLNRWITFSQSIISTLT
B17: EP571 (clone 2021EP22-H02), E. coli-produced (ligand)
chain: B10 chain with S81R, P83S, D84E, I86M, N88T, A90R, Y92P, F93V, V94Q, E95A
B18: EP574 (clone 2021EP22-B04), E. coli-produced (ligand)
chain: APASSSTKKTQLQLEHLLLDLQMILNGINNYKNPKLTRMLTFKFYMPKKATELKHLQCLEEELKPLEEVLNLAQSKNFHLFTKDLTSTMQILVLQLKGSETTFMCEYADETATIVEFLNRWITFSQSIISTLT
B19: EP566 (clone 2021EP22-H09), E. coli-produced (ligand)
chain: B6 chain with P82L, R83T, D84H, S85L, R87N, L88V, S90G, V93L, F94V, R95Q

Columns and labels:
[1] = biological target: T1, human IL2Rα Fc fusion protein; assay: ELISA, single concentration, anti-flag detection, E. coli-produced clone
Description: (§1) Supernatants containing engineered IL2 mutants were assessed with sandwich ELISA assay to screen for IL2Rα binding. Briefly, 96-well plate was immobilized with human Fc and human IL2Rα, respectively, at a final concentration of 2 μg/mL in 1× PBS in total volume of 50 μL per well. The plate was incubated overnight at 4° C. followed by blocking with 200 μL of superblock per well for 1 hour. 100 μl of supernatant was added to both Fc and IL2Rα immobilized wells and incubated for 1 hour with shaking. The engineered IL2 mutant binding was detected by adding 50 μL of anti-Flag HRP diluted at 1:5000 in 1× PBST. In between each step, the plate was washed three times with 1× PBST in a plate washer. The plate was then developed with 50 μL of TMB substrate for five minutes and stopped by adding 50 μL of 2N sulfuric acid. The plate was read at OD450 nm using a Biotek plate reader and the binding and selectivity was analyzed.
as §1, with “Single clones were next screened for IL2Rβ binding. IL2Rβ binding screening ELISA was developed for the identification of individual” for “Supernatants containing”, “mutant.” for “mutants were assessed with sandwich ELISA assay to screen for IL2Rα binding.”, “IL2Rβ,” for “IL2Rα,”, “IL2Rβ” for “IL2Rα”
(§2) To further triage, the engineered IL2 clones with unique sequences were produced in E. coli. In short, the glycerol stock of each engineered agonist clone was inoculated into TB medium for overnight growth. The next day, cells from the overnight culture were inoculated into TB medium and grown to a cell density of OD₆₀₀ between 0.6-0.8. IPTG was added to a final concentration of 1 mM to induce the expression during culture at 30° C. overnight. The supernatant was collected by centrifugation.

[2] = biological target: T1, human IL2Rα Fc fusion protein; assay: SPR (Biacore T200), receptor captured on Protein A chip, IL2 at 100 nM and 20 nM
Description: The assay was run with Biacore T200 control software version 2.0. For each cycle, 1 μg/mL of human IL2Rβ or IL2Rα was captured for 60 seconds at flow rate of 10 μL/min on flow cell 2 in 1× HBSP buffer on Protein A sensor chip. 100 nM and 20 nM of HIS tag purified engineered IL2 mutant was injected onto both reference flow cell 1 and IL2Rβ or IL2Rα captured flow cell 2 for 150 seconds at flow rate of 30 μL/min followed by washing for 300 seconds. The flow cells were then regenerated with Glycine pH 2 for 60 seconds at a flow rate of 30 μL/mins. The kinetics data was analyzed with Biacore T200 evaluation software 3000. The specific binding response unit was derived from subtraction of binding to reference flow cell 1 from target flow cell 2.

[3] = biological target: T2, human IL2Rβ Fc fusion protein; assay: ELISA, single concentration, anti-flag detection, E. coli-produced clone
Description: as §1
as §1, with “Single clones were next screened for IL2Rβ binding. IL2Rβ binding screening ELISA was developed for the identification of individual” for “Supernatants containing”, “mutant.” for “mutants were assessed with sandwich ELISA assay to screen for IL2Rα binding.”, “IL2Rβ,” for “IL2Rα,”, “IL2Rβ” for “IL2Rα”
as §2

| OD450 nm [1] | Kd [2] | OD450 nm [3] | Binder |
| --- | --- | --- | --- |
| 0.086 OD450 | 0.018 µM | – | B1 |
| 0.105 OD450 | 0.142 µM | – | B2 |
| 0.88 OD450 | 0.106 µM | 0.127 OD450 | B3 |
| 0.361 OD450 | 0.143 µM | 1.12 OD450 | B4 |
| 0.857 OD450 | 9.34 µM | – | B5 |
| – | – | 0.505 OD450 | B6 |
| 1.25 OD450 | 0.0983 µM | 0.057 OD450 | B7 |
| 0.079 OD450 | 0.0755 µM | 0.143 OD450 | B8 |
| 0.528 OD450 | 0.0213 µM | – | B9 |
| 0.614 OD450 | 4.26 µM | 0.583 OD450 | B10 |
| 1.58 OD450 | 0.0551 µM | 0.07 OD450 | B11 |
| 0.771 OD450 | 0.956 µM | 0.149 OD450 | B12 |
| 0.749 OD450 | – | 0.323 OD450 | B13 |
| 1.08 OD450 | 0.151 µM | 0.337 OD450 | B14 |
| 0.433 OD450 | 0.0478 µM | – | B15 |
| – | – | 0.611 OD450 | B16 |
| 0.423 OD450 | 0.117 µM | 0.653 OD450 | B17 |
| 0.171 OD450 | 0.207 µM | – | B18 |
| 0.251 OD450 | 0.523 µM | – | B19 |
